Experimental findings from patent US20260167698A1 (ONO PHARMACEUTICAL, published 2026) are described below.

Substitutions are numbered along the chain they refer to.

B1: anti-Allergin-1 bispecific antibody #15_h_optv2 clone (bispecific antibody, human IgG1, kappa, L234A L235A, N297A)
heavy: EVQLVESGGGLVQPGGSLRLSCAASGFSLSSHAMSWVRQAPGKGLEWIGTISTIDTTYYASWAKGRFTISRDNSKNTVYLQMNSLRAEDTAVYYCARLSELYTTNSYYSRWGQGTLVTVSSASTKGPSVFPLAPSSKSTSGGTAALGCLVKDYFPEPVTVSWNSGALTSGVHTFPAVLQSSGLYSLSSVVTVPSSSLGTQTYICNVNHKPSNTKVDKRVEPKSCDKTHTCPPCPAPEAAGGPSVFLFPPKPKDTLMISRTPEVTCVVVDVSHEDPEVKFNWYVDGVEVHNAKTKPREEQYASTYRVVSVLTVLHQDWLNGKEYKCKVSNKALPAPIEKTISKAKGQPREPQVYTLPPSREEMTKNQVSLTCLVKGFYPSDIAVEWESNGQPENNYKTTPPVLDSDGSFFLYSKLTVDKSRWQQGNVFSCSVMHEALHNHYTQKSLSLSPGGGGGSGGGGSAIQMTQSPSSLSARVGDRVTITCQSSESVYDNNYLSWYQQKPGKAPKLLIYDASRLASGVPSRFSGSGSGTQFTLTISSLQPEDFATYYCLGGYDSSGWYAAFGTGTKVTVLGGGGGSGGGGSGGGGSGGGGSEVQLVESGGGLVQPGGSLRLSCAASGFSLTIYTITWVRQAPGKGLEWIGTINSYGNTYYSTWAKGRFTISRDNSKNTVYLQMNSLRAEDTAVYYCARGYVDSDWYLNIWGQGTLVTVSS
light: DIQMTQSPSSLSASVGDRVTITCQASESIGSLLAWYQQKPGKAPKLLIYRASTLESGVPSRFSGSGSGTDFTLTISSLQPEDFATYYCQSYHYSSSSSYAAFGQGTKVEIKRTVAAPSVFIFPPSDEQLKSGTASVVCLLNNFYPREAKVQWKVDNALQSGNSQESVTEQDSKDSTYSLSSTLTLSKADYEKHKVYACEVTHQGLSSPVTKSFNRGEC
notes: Morrison form: Fab Pro1571, scFv Pro2281
B2: anti-Allergin-1 bispecific antibody #15_h_opt clone (bispecific antibody, human IgG1, kappa, L234A L235A, N297A)
heavy: B1 heavy with T565C, G637C
light: B1 light
notes: Morrison form: Fab Pro1571, scFv Pro2282
B3: anti-Allergin-1 bispecific antibody #15_h clone (bispecific antibody, human IgG1, kappa, L234A L235A, N297A)
heavy: B1 heavy with A461D, R474S, Q532D
light: B1 light
notes: Morrison form antibody: Fab from Pro1571 (S2-D), scFv from Pro1588 (S1-A) on the heavy chain C-terminus
B4: anti-Allergin-1 bispecific antibody #15p_h_opt clone (bispecific antibody, human IgG1, kappa, L234A L235A, N297A)
heavy: EVQLVESGGGLVQPGGSLRLSCAASGFSLTIYTITWVRQAPGKGLEWIGTINSYGNTYYSTWAKGRFTISRDNSKNTVYLQMNSLRAEDTAVYYCARGYVDSDWYLNIWGQGTLVTVSSASTKGPSVFPLAPSSKSTSGGTAALGCLVKDYFPEPVTVSWNSGALTSGVHTFPAVLQSSGLYSLSSVVTVPSSSLGTQTYICNVNHKPSNTKVDKRVEPKSCDKTHTCPPCPAPEAAGGPSVFLFPPKPKDTLMISRTPEVTCVVVDVSHEDPEVKFNWYVDGVEVHNAKTKPREEQYASTYRVVSVLTVLHQDWLNGKEYKCKVSNKALPAPIEKTISKAKGQPREPQVYTLPPSREEMTKNQVSLTCLVKGFYPSDIAVEWESNGQPENNYKTTPPVLDSDGSFFLYSKLTVDKSRWQQGNVFSCSVMHEALHNHYTQKSLSLSPGGGGGSGGGGSDIQMTQSPSSLSASVGDRVTITCQASESIGSLLAWYQQKPGKAPKLLIYRASTLESGVPSRFSGSGSGTDFTLTISSLQPEDFATYYCQSYHYSSSSSYAAFGCGTKVTVLGGGGGSGGGGSGGGGSGGGGSEVQLVESGGGLVQPGGSLRLSCAASGFSLSSHAMSWVRQAPGKCLEWIGTISTIDTTYYASWAKGRFTISRDNSKNTVYLQMNSLRAEDTAVYYCARLSELYTTNSYYSRWGQGTLVTVSS
light: AIQMTQSPSSLSARVGDRVTITCQSSESVYDNNYLSWYQQKPGKAPKLLIYDASRLASGVPSRFSGSGSGTQFTLTISSLQPEDFATYYCLGGYDSSGWYAAFGQGTKVEIKRTVAAPSVFIFPPSDEQLKSGTASVVCLLNNFYPREAKVQWKVDNALQSGNSQESVTEQDSKDSTYSLSSTLTLSKADYEKHKVYACEVTHQGLSSPVTKSFNRGEC
notes: Morrison form: Fab Pro2281, scFv Pro2285
B5: humanized scFv Pro1571 (scFv, V domains shown)
VH: EVQLVESGGGLVQPGGSLRLSCAASGFSLSSHAMSWVRQAPGKGLEWIGTISTIDTTYYASWAKGRFTISRDNSKNTVYLQMNSLRAEDTAVYYCARLSELYTTNSYYSRWGQGTLVTVSS
VL: DIQMTQSPSSLSASVGDRVTITCQASESIGSLLAWYQQKPGKAPKLLIYRASTLESGVPSRFSGSGSGTDFTLTISSLQPEDFATYYCQSYHYSSSSSYAAFGTGTKVTVLG
notes: A single-chain Fv
B6: humanized scFv Pro1751 (scFv, V domains shown)
VH: EVQLVESGGGLVQPGGSLRLSCAASGIDFSSYYDMCWVRQAPGKCLEWIGCIYTGSVGELYYASWAKGRFTISRDNSKNTVYLQMNSLRAEDTAVYYCARRGSGVDDYYFNLWGQGTLVTVSS
VL: DIQMTQSPSSLSASVGDRVTITCQSSQSVDNNNWLAWYQQKPGKAPKLLIYDASTLASGVPSRFSGSGSGTDFTLTISSLQPEDFATYYCQGTYYTTDWWNSFGCGTKVTVLG
notes: A single-chain Fv
B7: humanized scFv Pro1742 (scFv, V domains shown)
VH: EVQLVESGGGLVQPGGSLRLSCAASGFSLNNYFMIWVRQAPGKCLEWIGIITSYHTTYFANWAKGRFTISRDNSKNTVYLQMNSLRAEDTAVYYCAPYDIYGYPTLWGQGTLVTVSS
VL: DIQMTQSPSSLSASVGDRVTITCQASQSIGAYLSWYQQKPGKAPKLLIYEASTLASGVPSRFSGSGSGTDFTLTISSLQPEDFATYYCLGAYGRSSDDGTAFGCGTKVTVLG
notes: A single-chain Fv
B8: humanized scFv Pro1586 (scFv, V domains shown)
VH: EVQLVESGGGLVQPGGSLRLSCAASGIDLSYYAMNWVRQAPGKGLEWIGMIVGGGITFYANWAKGRFTISRDNSKNTVYLQMNSLRAEDTAVYYCAVGSDGGISDFNIWGQGTLVTVSS
VL: DIQMTQSPSSLSASVGDRVTITCQASQSISSYLAWYQQKPGKAPKLLIYRASTLASGVPSRFSGSGSGTDFTLTISSLQPEDFATYYCQQAYSLSNVDNFFGTGTKVTVLG
notes: A single-chain Fv
B9: humanized scFv Pro1570 (scFv, V domains shown)
VH: EVQLVESGGGLVQPGGSLRLSCAASGFSLSSYAMIWVRQAPGKGLEWIGFIDTDGHTEYANWAKGRFTISRDNSKNTVYLQMNSLRAEDTAVYYCARDGDHDYWGFNLWGQGTLVTVSS
VL: DIQMTQSPSSLSASVGDRVTITCQASQNIYRNLVWYQQKPGKAPKLLIYGASELESGVPSRFSGSGSGTDFTLTISSLQPEDFATYYCLSTYYISSSDNSFGTGTKVTVLG
notes: A single-chain Fv
B10: humanized scFv Pro1565 (scFv, V domains shown)
VH: EVQLVESGGGLVQPGGSLRLSCAASGFSLSSHAMAWVRQAPGKGLEWIGYIWSGGITEYPSWAKGRFTISRDNSKNTVYLQMNSLRAEDTAVYYCARDVHIYGDIYAFDLWGQGTLVTVSS
VL: DIQMTQSPSSLSASVGDRVTITCQASQDIESYLNWYQQKPGKAPKLLIYYASTLASGVPSRFSGSGSGTDFTLTISSLQPEDFATYYCQQSYSNSDVDKNVFGTGTKVTVLG
notes: A single-chain Fv
B11: humanized scFv Pro1707 (scFv, V domains shown)
VH: ESQLVESGGGLVQPGGSLRLSCAVSGIDLSSYAVGWVRQAPGKGLEWIGIIGRSGSIYYASWAKGRFTISKDNSKNTVYLQMNSLRAEDTAVYYCARDVDSRPPTGSLWGQGTLVTVSS
VL: DVQMTQSPSSLSASVGDRVTITCQASQNTYSNLDWYQQKPGKAPKLLIYQASKLASGVPSRFSGSGSGTDFTLTISSLQPEDFATYYCQSTSWGSSYVGGFGTGTKVTVLG
notes: A single-chain Fv
B12: humanized scFv Pro1588 (scFv, V domains shown)
VH: EVQLVESGGGLVQPGGSLRLSCAASGFSLTIYTITWVRQAPGKGLEWIGTINSYGNTYYSTWAKGRFTISRDNSKNTVYLQMNSLRAEDTAVYYCARGYVDSDWYLNIWGQGTLVTVSS
VL: DIQMTQSPSSLSASVGDRVTITCQSSESVYDNNYLSWYQQKPGKAPKLLIYDASRLASGVPSRFSGSGSGTDFTLTISSLQPEDFATYYCLGGYDSSGWYAAFGTGTKVTVLG
notes: A single-chain Fv

The target of the first assay is T1, human Allergin-1L (expressed on CHO cells) (human, UniProt Q7Z6M3 20-343).
T1 construct: also called MILR1; human Allergin-1L-expressing CHO cell lines
T1 sequence: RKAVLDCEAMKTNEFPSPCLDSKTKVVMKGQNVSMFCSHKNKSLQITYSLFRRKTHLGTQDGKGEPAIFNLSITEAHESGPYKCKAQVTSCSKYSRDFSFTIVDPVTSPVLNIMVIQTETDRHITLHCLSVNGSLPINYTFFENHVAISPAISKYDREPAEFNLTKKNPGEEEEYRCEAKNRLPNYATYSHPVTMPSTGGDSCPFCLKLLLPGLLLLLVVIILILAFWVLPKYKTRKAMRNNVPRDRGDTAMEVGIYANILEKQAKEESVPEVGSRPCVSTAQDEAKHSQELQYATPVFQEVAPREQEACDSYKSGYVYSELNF
Description: flow cytometry, binding to Allergin-1L.
Take B1: the concentration giving a half-maximal response (EC50) – broadly, the concentration at which the effect is half-maximal – worked out at 2.41 nM.
Turning to B2, the midpoint of the response, the EC50, lay at 2.58 nM.
Still for that read-out and setting: to B3 belongs 2.37 nM; to B4, 1.49 nM.

The next assay concerns the target T1, human Allergin-1L (expressed on CHO …). As to the kind of experiment: selected on binding by CELISA and SPR (Example 5). Here is the method:
The purified humanized scFv was analyzed for binding to CHO cells stably expressing human Allergin-1L and monkey Allergin-1, by CELISA, respectively. In detail, the CHO cells were seeded in 96-well plates, to which diluted humanized scFv was added, and which were incubated at 37° C. After washing the CHO cells, to which diluted HRP-labeled Protein L was added, and which were incubated again at 37° C. After washing the CHO cells again, to which HRP chromogenic substrate was added, and which were incubated at room temperature, and then in which absorbance was measured. As a result, the bindings to human Allergin-1L and monkey Allergin-1 were confirmed in several clones.
Furthermore, for each humanized scFv, the binding to Fc-fused human Allergin-1L recombinant protein was analyzed by SPR method. In detail, Fc-fused human Allergin-1L recombinant protein was immobilized on a sensor chip, followed by flowing humanized scFv as an analyte into a flow cell. As a result, the bindings to human Allergin-1L were confirmed in several clones.
With B5, the binding result is on record as “binds”.
Take B6: the binding result is “binds”.
Still for that read-out and setting: to B7 belongs “binds”.
Regarding B8, the binding result was “binds”.
On the same count and under the same terms, to B9 belongs “binds”; to B10, “binds”; to B11, “binds”.
Regarding B12, the binding result was “binds”.
